# IntAct's records for PubMed 31515488
# B1: EF-hand domain-containing family member C2 (Homo sapiens), Q5JST6 (parent)
# chain: MALPLLPGNSFNRNVGKEKFHKSQHWGFCNNVMMLVSDEKPGIGGEPLLGQKIKPKCSIYPKGDGSDVPSWVAFDKQVLSFDAYLEEEVLDKSQTNYRIRYYKIYFYPEDDTIQVNEPEVKNSGLLQGTSIRRHRITLPPPDEDQFYTVYHFNVGTEVVFYGRTFKIYDCDAFTRNFLRKIGVKVNPPVQCPEDPYMKIRREVVEHVEPLRPYESLDTLKQFLQYHGKILCFFCLWDDSVSMFGDRRELILHYFLCDDTIEIKELLPHSSGRDALKMFLRRSKLPKNCPPRVYQPGQITDRAVLNSYGDFIKNQADGYLFDRYKLGKVDQEFYKDSDLSLGVTINVWGRKVLLYDCDEFTKSYYKSKYGIENFTSVSCKPPSPPPKIERKFPPYNGFGSEEDSLRNCIDLKPTPHRRNFKKFMEKDSYGSKSNILRFFAKLVTDKCVDLDRMFVISYYLGDDTISVFEPIERNSGIAGGMFLKRSRVKKPGQEVFKSELSEYIKAEELYIGVTVNVNGYLFRLLNADEYTLNYMEQNTDKYPFSNLKLALQKLKQEEGKSRELKQVFKAADSKHTNMVDYNTFRDILMSLTVGNLAEQEFVTIARHYRVPEGTCSDMDFLIALAHEKFKKNMFENFDTFIYSCVYEDREKKNVLPTKDIKRLCKSSRLPLSDDLLESLLSRFEDSEKQIDYKSFFSALNWRKNPVPELQPASYLKERCEDVWLGMPSPIPAKYIDYWTFLKDAFGLEEE
# B2: Tuftelin-interacting protein 11 (Homo sapiens), Q9UBB9 (parent)
# chain: MSLSHLYRDGEGRIDDDDDERENFEITDWDLQNEFNPNRQRHWQTKEEATYGVWAERDSDDERPSFGGKRARDYSAPVNFISAGLKKGAAEEAELEDSDDEEKPVKQDDFPKDFGPRKLKTGGNFKPSQKGFAGGTKSFMDFGSWERHTKGIGQKLLQKMGYVPGRGLGKNAQGIINPIEAKQRKGKGAVGAYGSERTTQSMQDFPVVDSEEEAEEEFQKELSQWRKDPSGSKKKPKYSYKTVEELKAKGRISKKLTAPQKELSQVKVIDMTGREQKVYYSYSQISHKHNVPDDGLPLQSQQLPQSGKEAKAPGFALPELEHNLQLLIDLTEQEIIQNDRQLQYERDMVVNLFHELEKMTEVLDHEERVISNLSKVLEMVEECERRMQPDCSNPLTLDECARIFETLQDKYYEEYRMSDRVDLAVAIVYPLMKEYFKEWDPLKDCTYGTEIISKWKSLLENDQLLSHGGQDLSADAFHRLIWEVWMPFVRNIVTQWQPRNCDPMVDFLDSWVHIIPVWILDNILDQLIFPKLQKEVENWNPLTDTVPIHSWIHPWLPLMQARLEPLYSPIRSKLSSALQKWHPSDSSAKLILQPWKDVFTPGSWEAFMVKNIVPKLGMCLGELVINPHQQHMDAFYWVIDWEGMISVSSLVGLLEKHFFPKWLQVLCSWLSNSPNYEEITKWYLGWKSMFSDQVLAHPSVKDKFNEALDIMNRAVSSNVGAYMQPGARENIAYLTHTERRKDFQYEAMQERREAENMAQRGIGVAASSVPMNFKDLIETKAEEHNIVFMPVIGKRHEGKQLYTFGRIVIYIDRGVVFVQGEKTWVPTSLQSLIDMAK
# partner: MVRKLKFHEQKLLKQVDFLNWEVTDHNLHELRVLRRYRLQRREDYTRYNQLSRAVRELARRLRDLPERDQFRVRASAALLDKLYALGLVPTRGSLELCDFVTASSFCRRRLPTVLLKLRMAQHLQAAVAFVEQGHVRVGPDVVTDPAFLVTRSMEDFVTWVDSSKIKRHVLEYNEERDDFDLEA
# B3: Leucine rich adaptor protein 1 (Homo sapiens), Q96LR2 (parent)
# chain: MEGTVESQTPDLRDVEGKVGRKTPEGLLRGLRGECELGTSGALLLPGASSTGHDLGDKIMALKMELAYLRAIDVKILQQLVTLNEGIEAVRWLLEERGTLTSHCSSLTSSQYSLTGGSPGRSRRGSWDSLPDTSTTDRLDSVSIGSFLDTVAPSELDEQGPPGAPRSEMDWAKVIAGGERARTEVDVAATRLGSLRAVWKPPGERLQGGPPESPEDESAKLGFEAHWFWEQCQDDVTFL
# partner: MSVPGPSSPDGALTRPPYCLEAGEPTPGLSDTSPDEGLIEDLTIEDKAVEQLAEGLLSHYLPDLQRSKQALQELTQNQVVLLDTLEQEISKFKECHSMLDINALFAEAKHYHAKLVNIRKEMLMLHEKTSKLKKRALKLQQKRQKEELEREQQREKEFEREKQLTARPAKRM
# B4: Keratin, type I cytoskeletal 40 (Homo sapiens), Q6A162 (parent)
# chain: MTSDCSSTHCSPESCGTASGCAPASSCSVETACLPGTCATSRCQTPSFLSRSRGLTGCLLPCYFTGSCNSPCLVGNCAWCEDGVFTSNEKETMQFLNDRLASYLEKVRSLEETNAELESRIQEQCEQDIPMVCPDYQRYFNTIEDLQQKILCTKAENSRLAVQLDNCKLATDDFKSKYESELSLRQLLEADISSLHGILEELTLCKSDLEAHVESLKEDLLCLKKNHEEEVNLLREQLGDRLSVELDTAPTLDLNRVLDEMRCQCETVLANNRREAEEWLAVQTEELNQQQLSSAEQLQGCQMEILELKRTASALEIELQAQQSLTESLECTVAETEAQYSSQLAQIQCLIDNLENQLAEIRCDLERQNQEYQVLLDVKARLEGEINTYWGLLDSEDSRLSCSPCSTTCTSSNTCEPCSAYVICTVENCCL
# Variants of: B1
# Details: with plod3_human PLOD3, O60568
# Chain of plod3_human PLOD3, O60568 (O60568 whole entry): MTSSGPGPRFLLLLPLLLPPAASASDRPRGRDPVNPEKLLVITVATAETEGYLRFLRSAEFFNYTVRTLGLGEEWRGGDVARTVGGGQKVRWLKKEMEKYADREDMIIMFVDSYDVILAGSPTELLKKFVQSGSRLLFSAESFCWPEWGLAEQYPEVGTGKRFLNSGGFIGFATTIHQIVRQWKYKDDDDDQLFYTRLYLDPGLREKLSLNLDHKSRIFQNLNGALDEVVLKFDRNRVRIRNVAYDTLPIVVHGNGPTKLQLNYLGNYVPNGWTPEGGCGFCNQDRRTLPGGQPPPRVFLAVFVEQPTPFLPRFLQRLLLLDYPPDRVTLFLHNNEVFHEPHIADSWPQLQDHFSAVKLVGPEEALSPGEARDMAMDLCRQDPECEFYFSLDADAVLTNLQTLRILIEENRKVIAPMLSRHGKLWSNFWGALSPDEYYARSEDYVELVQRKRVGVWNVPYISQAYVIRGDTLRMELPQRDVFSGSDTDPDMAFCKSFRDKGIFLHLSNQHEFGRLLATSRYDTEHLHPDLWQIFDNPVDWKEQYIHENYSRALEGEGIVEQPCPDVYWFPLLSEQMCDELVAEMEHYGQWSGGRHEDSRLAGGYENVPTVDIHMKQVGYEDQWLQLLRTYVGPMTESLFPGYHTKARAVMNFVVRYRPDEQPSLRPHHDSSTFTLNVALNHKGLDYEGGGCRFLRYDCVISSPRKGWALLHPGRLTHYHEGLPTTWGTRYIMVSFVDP
row,effect of a mutation on the interaction,Variant
1,disrupting interaction strength,N31S
2,disrupting interaction strength,E507Q

# Variants of: B1
# Details: with ptk6_human PTK6, Q13882
row,effect of a mutation on the interaction,Variant
1,disrupting interaction strength,N31S

# Variants of: B1
# Details: with ercc3_human ERCC3, P19447
# Chain of ercc3_human ERCC3, P19447 (P19447 whole entry): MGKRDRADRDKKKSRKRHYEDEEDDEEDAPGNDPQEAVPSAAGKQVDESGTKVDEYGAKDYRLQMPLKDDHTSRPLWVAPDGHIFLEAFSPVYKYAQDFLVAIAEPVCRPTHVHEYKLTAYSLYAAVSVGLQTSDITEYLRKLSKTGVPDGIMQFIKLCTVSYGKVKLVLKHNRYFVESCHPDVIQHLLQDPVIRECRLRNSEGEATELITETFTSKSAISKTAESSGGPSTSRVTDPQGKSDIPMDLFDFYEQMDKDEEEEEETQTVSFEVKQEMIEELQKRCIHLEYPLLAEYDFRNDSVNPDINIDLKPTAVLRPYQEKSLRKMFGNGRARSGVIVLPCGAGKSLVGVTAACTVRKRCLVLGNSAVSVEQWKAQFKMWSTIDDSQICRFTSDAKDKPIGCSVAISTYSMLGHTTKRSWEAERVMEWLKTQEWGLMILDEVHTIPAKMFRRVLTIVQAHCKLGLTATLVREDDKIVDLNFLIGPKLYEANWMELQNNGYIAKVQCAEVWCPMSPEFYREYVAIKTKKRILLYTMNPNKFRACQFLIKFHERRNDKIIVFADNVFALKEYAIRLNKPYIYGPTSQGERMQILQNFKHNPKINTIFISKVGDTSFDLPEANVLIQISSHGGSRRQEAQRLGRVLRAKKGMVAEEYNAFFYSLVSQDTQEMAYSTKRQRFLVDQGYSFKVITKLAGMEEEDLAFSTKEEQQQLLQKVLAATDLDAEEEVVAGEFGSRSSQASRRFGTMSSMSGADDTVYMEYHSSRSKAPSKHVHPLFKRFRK
row,effect of a mutation on the interaction,Variant
1,disrupting interaction strength,N31S

# Variants of: B1
# Details: with mk09_human MAPK9, P45984
row,effect of a mutation on the interaction,Variant
1,disrupting interaction strength,N31S

# Variants of: B1
# Details: with ercc3_human ERCC3, P19447
# Remark: another data set of the same source
row,effect of a mutation on the interaction,Variant
1,with no effect,V376I

# Variants of: B1
# Details: with ptk6_human PTK6, Q13882
# Remark: another data set of the same source
row,effect of a mutation on the interaction,Variant
1,with no effect,V376I

# Variants of: B1
# Details: with mk09_human MAPK9, P45984
# Remark: another data set of the same source
row,effect of a mutation on the interaction,Variant
1,with no effect,V376I

# Variants of: B1
# Details: with plod3_human PLOD3, O60568
# Remark: another data set of the same source
row,effect of a mutation on the interaction,Variant
1,with no effect,V376I

# Variants of: B2
# Details: with imp3_human IMP3, Q9NV31
row,effect of a mutation on the interaction,Variant
1,with no effect,S688L
2,with no effect,R8Q

# Variants of: B3
# Details: with bl1s6_human BLOC1S6, Q9UL45
row,effect of a mutation on the interaction,Variant
1,with no effect,M60L
2,disrupting interaction strength,Q207R

# Variants of: B4
# Details: with wt1_human WT1, P19544
# Chain of wt1_human WT1, P19544 (P19544 whole entry): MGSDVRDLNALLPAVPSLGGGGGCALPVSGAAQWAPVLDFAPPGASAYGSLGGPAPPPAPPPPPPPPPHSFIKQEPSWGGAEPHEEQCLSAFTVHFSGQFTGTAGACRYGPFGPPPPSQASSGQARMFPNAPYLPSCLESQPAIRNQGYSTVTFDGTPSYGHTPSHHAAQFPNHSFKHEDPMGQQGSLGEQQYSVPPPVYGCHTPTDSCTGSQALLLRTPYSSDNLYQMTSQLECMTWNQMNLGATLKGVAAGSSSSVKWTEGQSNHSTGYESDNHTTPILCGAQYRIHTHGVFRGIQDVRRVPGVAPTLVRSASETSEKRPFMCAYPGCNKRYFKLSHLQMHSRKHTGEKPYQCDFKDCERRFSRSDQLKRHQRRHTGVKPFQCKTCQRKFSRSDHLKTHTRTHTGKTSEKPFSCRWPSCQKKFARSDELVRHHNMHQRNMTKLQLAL
row,effect of a mutation on the interaction,Variant
1,with no effect,T37A
2,with no effect,F85S
3,with no effect,S102N

# Variants of: B4
# Details: with k2c4_human KRT4, P19013
# Chain of k2c4_human KRT4, P19013 (P19013 whole entry): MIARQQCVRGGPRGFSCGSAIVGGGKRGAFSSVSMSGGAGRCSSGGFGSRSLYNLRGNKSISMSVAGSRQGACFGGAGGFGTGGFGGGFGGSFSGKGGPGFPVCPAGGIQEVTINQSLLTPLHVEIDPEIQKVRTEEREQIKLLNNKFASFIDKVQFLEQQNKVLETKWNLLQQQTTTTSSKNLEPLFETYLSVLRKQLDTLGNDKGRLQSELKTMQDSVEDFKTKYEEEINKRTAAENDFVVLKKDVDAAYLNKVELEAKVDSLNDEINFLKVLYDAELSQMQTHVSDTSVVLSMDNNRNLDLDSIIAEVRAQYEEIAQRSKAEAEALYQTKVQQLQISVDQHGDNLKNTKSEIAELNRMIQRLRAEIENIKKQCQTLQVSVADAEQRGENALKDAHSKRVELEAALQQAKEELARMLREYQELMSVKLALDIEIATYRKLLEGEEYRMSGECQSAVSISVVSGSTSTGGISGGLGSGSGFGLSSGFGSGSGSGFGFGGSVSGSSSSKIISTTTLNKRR
row,effect of a mutation on the interaction,Variant
1,with no effect,T37A
2,with no effect,F85S
3,with no effect,S102N

# Variants of: B4
# Details: with mta1_human MTA1, Q13330
# Chain of mta1_human MTA1, Q13330 (Q13330 whole entry): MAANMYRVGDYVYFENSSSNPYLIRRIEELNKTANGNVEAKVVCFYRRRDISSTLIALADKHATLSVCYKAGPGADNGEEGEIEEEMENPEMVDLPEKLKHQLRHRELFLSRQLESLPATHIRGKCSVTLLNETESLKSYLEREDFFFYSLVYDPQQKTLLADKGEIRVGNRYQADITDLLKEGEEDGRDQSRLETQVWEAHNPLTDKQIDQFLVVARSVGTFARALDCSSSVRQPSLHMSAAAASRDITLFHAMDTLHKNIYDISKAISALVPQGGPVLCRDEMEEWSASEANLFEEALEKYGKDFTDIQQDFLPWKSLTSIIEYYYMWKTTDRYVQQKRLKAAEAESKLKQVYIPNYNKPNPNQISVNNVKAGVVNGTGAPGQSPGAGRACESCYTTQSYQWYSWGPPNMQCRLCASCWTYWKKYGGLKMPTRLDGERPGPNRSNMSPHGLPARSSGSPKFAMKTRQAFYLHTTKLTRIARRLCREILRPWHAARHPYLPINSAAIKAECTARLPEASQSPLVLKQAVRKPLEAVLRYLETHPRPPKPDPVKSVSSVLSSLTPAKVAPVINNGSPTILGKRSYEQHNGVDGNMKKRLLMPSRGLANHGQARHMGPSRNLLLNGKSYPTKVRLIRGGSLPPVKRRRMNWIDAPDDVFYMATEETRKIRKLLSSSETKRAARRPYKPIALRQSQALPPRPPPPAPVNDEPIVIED
row,effect of a mutation on the interaction,Variant
1,with no effect,T37A
2,with no effect,F85S
3,with no effect,S102N

# Variants of: B4
# Details: with prs8_human PSMC5, P62195
# Chain of prs8_human PSMC5, P62195 (P62195 whole entry): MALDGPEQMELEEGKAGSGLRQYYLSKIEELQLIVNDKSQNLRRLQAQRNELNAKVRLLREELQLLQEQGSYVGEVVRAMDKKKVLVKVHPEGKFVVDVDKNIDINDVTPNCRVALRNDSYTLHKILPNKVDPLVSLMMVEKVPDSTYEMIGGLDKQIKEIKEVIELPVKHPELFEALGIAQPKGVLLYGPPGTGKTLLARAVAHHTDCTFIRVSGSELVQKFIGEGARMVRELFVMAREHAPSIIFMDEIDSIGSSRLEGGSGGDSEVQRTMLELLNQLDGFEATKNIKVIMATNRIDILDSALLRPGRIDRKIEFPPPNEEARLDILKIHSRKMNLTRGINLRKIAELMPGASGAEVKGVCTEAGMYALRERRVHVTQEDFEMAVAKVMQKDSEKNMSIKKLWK
row,effect of a mutation on the interaction,Variant
1,with no effect,T37A
2,with no effect,F85S
3,with no effect,S102N

# Variants of: B4
# Details: with snai1_human SNAI1, O95863
# Chain of snai1_human SNAI1, O95863 (O95863 whole entry): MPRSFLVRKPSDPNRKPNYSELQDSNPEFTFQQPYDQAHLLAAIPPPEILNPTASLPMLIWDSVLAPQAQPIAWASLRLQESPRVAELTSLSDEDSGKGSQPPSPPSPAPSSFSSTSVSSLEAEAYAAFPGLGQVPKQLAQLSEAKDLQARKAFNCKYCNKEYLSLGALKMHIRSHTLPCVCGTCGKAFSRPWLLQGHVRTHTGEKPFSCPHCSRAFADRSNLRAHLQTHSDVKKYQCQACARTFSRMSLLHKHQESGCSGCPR
row,effect of a mutation on the interaction,Variant
1,with no effect,T37A
2,with no effect,F85S
3,with no effect,S102N
